The record followed here is article PMC5458393, “Crystal structure of N-acetylmannosamine kinase from Fusobacterium nucleatum” (Acta Crystallographica. Section F, Structural Biology …, 2017).

The data set concerns the molecule itself. The data set is described as follows: crystal structure; apo FnNanK at 14 mg/ml; sitting-drop vapour diffusion, 293 K; 0.2 M lithium sulfate, 0.1 M Tris-HCl pH 8.5, 30% PEG 4000; 2.23 A; one homodimer in the asymmetric unit.

B1: Fusobacterium nucleatum N-acetylmannosamine kinase (enzyme, F. nucleatum)
chain: ITSLYKKAGFMNILAIDIGGTMIKYGLVSFDGKILSTDKIKTEASKGLNNILNKIDNIFKRYKENNPVGIAVSGTGQINGMIGKVIGGNPIIPNWIGTNLVKILEEKYNLPIVLENDVNCVALGEKWVGAGKDLSNFICLTIGTGIGGGILLNNQLFRGENFVAGEFGHILIKKGEFEQFASTTALIRLVKERTGKTLNGKEIFDLEKKEILEYQEIISEWIENLTDGLSSIIYCFNPANIILGGGVIEQGEPLINRIKNSLFKKIGPQFKEKLNITQAKLGNNAGMIGASYLLLEKINKR
notes: N-acetylmannosamine kinase (NanK; EC 2.7.1.60) of Fusobacterium nucleatum, synthetic gene; primers run from the start codon to the stop codon; The tag was not removed; also called FnNanK; F. nucleatum NanK; source: E. coli BL21(DE3), purified (HisTrap FF, Superdex 200 size-exclusion); not shown: His6, N-terminal, kept
In the case of B1, the “stoichiometry N” value is 2.

As a reminder, the stoichiometry N is a count of units in the complex or per binding partner.
